The nature of data set [1]: 1H NMR of supernatant of peptide-hyaluronic acid mixtures (loss of HA and peptide from solution). The settings on record: 5 mg/mL HA. In kind it is binding. On the procedure: FIGS. 7A-7C show Nuclear magnetic resonant (NMR) proton spectra of representative (i) hyaluronic acid peaks and (ii) biotinyl peptide peaks and for (FIG. 7A) mPEP35, (FIG. 7B) 1-scrm, and (FIG. 7C) 17x-3 in 25 mM sodium acetate buffer at pH 5.2. Samples represent supernatant (soluble component) of mixtures with 5 mg/mL HA in variable peptide mixture of 1.25, 2.5. and 5 mg/mL.
Peptides and HA were suspended in 25 mM sodium acetate buffer (pH 5.2), made up from 19 mM sodium acetate-d3, 6 mM acetic acid-d4, 10% D2O, and 1 mg/ml DSS-D6. All samples were centrifuged at 21,000 G to remove precipitate and the supernatant was collected for analysis, as only the liquid suspension could be used. NMR spectra were collected on an Avance NEO 600 MHz spectrometer at 298K with excitation sculpting used to suppress the water signal. Number of scans and receiver gain were identical for all NMR spectra.
As higher peptide binding was accompanied by apparent gel-like structure on the substrate, the binding event may be characterized by the change in concentration of either peptide or HA remaining in the solution. ^1H NMR is an ideal method for measuring changes in concentration in solution. It provides atom-specific information that can be used to distinguish signals of biotinylated peptides (6.4 ppm) from those of hyaluronic acid (3.5 ppm) as presented in FIG. 7. Sodium acetate (pH 5.2) was chosen as the buffer since it provides better spectral quality of the amide signals than pH 7.4 buffer. Focus was placed on characterizing the binding of mPEP35, 1-scrm, and 17x-3, which reflect a positive control, a negative control, and a potent binder, respectively. Measurements were taken after centrifugation to remove gel that formed when peptide and HA are mixed. It should be noted that only HN peaks of the peptide show slight chemical shift perturbation upon addition of HA.

Data set [2] can be described thus: Transmission electron microscopy (TEM) of peptide nanostructures. The format is physicochemical. On the procedure:
The sample and stain were filter-dried in between steps. Samples were collected 24 hours at 37° C. after 30 minutes of sonication. All TEM was performed on a Philips FEI Technai Spirit G2 electron microscope. Peptides were incubated in both PBS and SC.

A short description of data set [3]: ECM specificity binding test, hyaluronic acid coating. To be noted: 5.0 mg/ml peptide, FIG. 4. On the procedure: (§1) Peptides were incubated 24 hours at 37° C. on collagens I-IV, elastin, hyaluronic acid, and Geltrex. Coatings (10 pig/cm^2) were previously dried overnight in milli-Q water. Overall significance was assessed using analysis of variance, with Tukey's multiple comparison post-hoc analysis between ECM groups where n=4.
(§2) Hyaluronic acid, collagens I, II, III, and IV, elastin, and Geltrex were coated onto 96-well black plates (medium binding affinity) at 10 μg/cm^2 and were dried in milli-Q water at room temperature. N-termini biotinylated peptides were added to coated plates at 0, 1, 2.5, 5 and 10 mg/ml overnight at 37° C. in phosphate buffered saline (PBS), pH 7.4, after which the plates were washed three times with PBS. Fluorescent streptavidin-488 (4 μg/mL) was added to each well and incubated at 37° C. temperature for 24 hours, then thoroughly washed with PBS. The plates were read with a fluorescence microplate reader for fluorescence intensity (Ex 490 nm, Em 525 nm). All data were normalized to the background fluorescence intensity of Streptavidin-488.

Data set [4] is described as follows: Circular dichroism (CD) of peptides. The format is physicochemical. The settings on record: 20 mM Sodium Cacodylate; for Ellipticity ratio (222 nm/208 nm) / Ellipticity 208 nm / Ellipticity 222 nm: 1.25 mg/mL; for Ellipticity 208 nm / Ellipticity 222 nm: CD data given as [θ]M×10^−3; for wavelength Minimum of CD profile: 5.0 mg/mL. The method, then:
Data is presented in ellipticity ([θ]M×10^−3) as a function of spectral wavelength (λ).
Sodium cacodylate (SC), 20 mM pH 7.4, without and with 20% TFE was used to reduce phosphate related background signal and enhance detected structures. Circular dichroism (CD) data were collected in millidegrees, 0, and converted to molar ellipticity, [θ]M, and are expressed in units of deg×cm^2×dmol^−1. Scan speeds and digital integration times were 500 nm/min and 1 second, respectively. The data on the Y axis of the CD plots is [θ]M×10^−3. […] Consequently, CD signals are reported in the 190-260 nm range.
(Circular dichroism is widely used to follow secondary structure.)

Data set [5] deals with extracellular matrix (ECM) components: Collagen type I, II, III and IV, elastin, hyaluronic acid and Geltrex. The experiment in a line: ECM specificity binding test, whole panel. To be noted: 5.0 mg/ml peptide, FIG. 4. On the procedure: as §1, §2
Data set [6] in a line: Concentration-dependent peptide binding to hyaluronic acid coating (biotin-streptavidin fluorescence). The method, then: Peptides were incubated 24 hours at 37° C. Coatings (10 μg/cm^2) were previously dried overnight in milli-Q water. Overall significance was assessed using analysis of variance, with Tukey's multiple comparison post-hoc analysis between 1-scrm and experimental groups where n=4.
N-termini biotinylated peptides were added to coated plates at 0, 1, 2.5, 5 and 10 mg/ml overnight at 37° C. in phosphate buffered saline (PBS), pH 7.4, after which the plates were washed three times with PBS.

Entries after “also recorded” stand apart in the source; their conditions may differ.

As to “KTKATVLIKNKQKSKNALKQKIVLLSK [Peptide 17x-3, de novo designed peptide with five B(X7)B domains]”, the HA spectra retained in data set [1] (1.25 mg/mL peptide) is given as about 80%. Besides, in data set [1] (2.5 and 5 mg/mL peptide), the “HA spectra / removal of HA from solution” value is “nearly gone; also recorded: almost entirely removed; also recorded: pull all HA out of solution”. Also, the “peptide removed from solution” value in data set [1] (2.5 to 5 mg/mL peptide) is on record as about 90%. Moreover, in data set [2] (PBS pH 7.4, 0.5% w/v, 30 minutes sonication, 24 hrs at 37° C.), the “TEM characterization, Phosphate Buffered Saline (i)” value was “fibers with many striations form larger fibers and the larger fibers tend to form a mesh network”. Further, in data set [2] (both PBS and sodium cacodylate), the “nanofiber formation in TEM, overall” value is “consistent nanofibers; also recorded: predominantly form fibers with striations and furthermore form a mesh network”. Besides, the “binding to hyaluronic acid in specificity testing” value in data set [3] is listed as “binds primarily”. Further, in data set [4], the “Ellipticity ratio (222 nm/208 nm)” value is 0.48, the “Ellipticity 208 nm” value is −135, the “Ellipticity 222 nm” value is reported as −64.4 and the “wavelength Minimum of CD profile” value was determined as 223 nm. Moreover, in data set [4] (20% TFE), the “Ellipticity ratio (222 nm/208 nm)” value was 0.72, the “Ellipticity 208 nm” value is recorded as −175, the “Ellipticity 222 nm” value is −126 and the “wavelength Minimum of CD profile” value is listed as 221 nm. For the same sequence, in data set [5], the “binding to the ECMs (for 17x-3: the ECMs other than hyaluronic acid)” value is “does not bind significantly” and the “specificity of binding to ECMs” value is recorded as “high specificity”. The “binding to hyaluronic acid with increasing concentrations of peptide (fluorescence intensity)” value in data set [6] (0-10 mg/ml peptide, PBS pH 7.4, 37° C., HA coating 10 μg/cm^2, FIG. 3) was “increases dramatically”. Also, in data set [6] (higher concentrations (5-10 mg/ml)), the “HA binding compared to mPEP35” value is “significantly stronger binder”. For the same sequence, in data set [6] (summary and discussion statements), the “HA binding, overall assessment” value is “proficient and specific binders; also recorded: HA specific and robust binders”.
